In the supplement of paper PMC9112550, “Optimization of the antimicrobial peptide Bac7 by deep mutational scanning” (BMC Biology, 2022):

Test system: Escherichia coli TOP10
Experiment: shrunken log2 fold change of peptide-encoding DNA abundance (4.5 h post-induction vs induction); higher = less antimicrobial activity (less host growth inhibition)
Settings: time post-induction: 4.5 h; library: site-saturation at positions 5, 18, 19, 20
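Further: peptides expressed intracellularly from a pBAD plasmid library in pooled LB shake-flask culture, induced with 0.3% L-arabinose, DNA abundance read by NGS, three biological replicates, DESeq2 with apeglm shrinkage.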

Sequence | shrunken log2 fold change
RRIRRRPPRLPRPRPRPLPAPRP | 0.599
RRIRFRPPRLPRPRPRPVATPRP | 0.547
RRIRQRPPRLPRPRPRPNDSPRP | -0.449
RRIRNRPPRLPRPRPRPAKGPRP | -0.051
RRIRGRPPRLPRPRPRPVTWPRP | 0.425
RRIRNRPPRLPRPRPRPNPSPRP | -0.00451
RRIRKRPPRLPRPRPRPWMHPRP | 0.00994
RRIRRRPPRLPRPRPRPGYEPRP | 0.0872
RRIRARPPRLPRPRPRPYICPRP | -0.326
RRIRQRPPRLPRPRPRPYLQPRP | 0.000139
RRIRYRPPRLPRPRPRPWERPRP | 0.0306
RRIRKRPPRLPRPRPRPNGWPRP | 0.452
RRIRMRPPRLPRPRPRPSDWPRP | 0.998
RRIRKRPPRLPRPRPRPGWDPRP | 0.364
RRIRMRPPRLPRPRPRPTHQPRP | 0.38
RRIRRRPPRLPRPRPRPDDGPRP | -0.147
RRIRTRPPRLPRPRPRPPIYPRP | -0.305
RRIRMRPPRLPRPRPRPAECPRP | 0.042
RRIRYRPPRLPRPRPRPWVDPRP | -0.445
RRIRLRPPRLPRPRPRPNNTPRP | -0.687
RRIRPRPPRLPRPRPRPRMTPRP | 0.288
RRIRNRPPRLPRPRPRPVPPPRP | 0.234

Sequence | shrunken log2 fold change
RRIRCRPPRLPRPRPRPHDPPRP | 0.286
RRIRIRPPRLPRPRPRPDWRPRP | 0.194
RRIRGRPPRLPRPRPRPRGHPRP | 1.11
RRIRVRPPRLPRPRPRPQAMPRP | -0.00096
RRIRTRPPRLPRPRPRPMWGPRP | -0.00569
RRIRWRPPRLPRPRPRPGDGPRP | 0.881
RRIRIRPPRLPRPRPRPCRRPRP | -0.23
RRIRPRPPRLPRPRPRPKQEPRP | 0.138
RRIRQRPPRLPRPRPRPHRHPRP | -0.284
RRIRERPPRLPRPRPRPHQHPRP | -0.449
RRIRIRPPRLPRPRPRPIFLPRP | -0.416
RRIRKRPPRLPRPRPRPGPMPRP | 0.595
RRIRQRPPRLPRPRPRPTHWPRP | 0.427
RRIRTRPPRLPRPRPRPNQYPRP | -0.446
RRIRERPPRLPRPRPRPADLPRP | -0.175
RRIRWRPPRLPRPRPRPEPAPRP | 1.18
RRIRQRPPRLPRPRPRPSQMPRP | -0.0442
RRIRERPPRLPRPRPRPQLMPRP | -0.0865
RRIRSRPPRLPRPRPRPSVKPRP | -0.068
RRIRFRPPRLPRPRPRPLLHPRP | -0.247
RRIRLRPPRLPRPRPRPYREPRP | -0.134
RRIRNRPPRLPRPRPRPQSWPRP | -0.0543

Sequence | shrunken log2 fold change
RRIRMRPPRLPRPRPRPTPTPRP | 2
RRIRERPPRLPRPRPRPGMLPRP | -0.0705
RRIRLRPPRLPRPRPRPIDIPRP | 0.00368
RRIRNRPPRLPRPRPRPCFNPRP | 0.0695
RRIRMRPPRLPRPRPRPGNNPRP | -0.0591
RRIRKRPPRLPRPRPRPDNHPRP | -0.715
RRIRVRPPRLPRPRPRPPKYPRP | -0.416
RRIRTRPPRLPRPRPRPRVQPRP | -0.2
RRIRNRPPRLPRPRPRPDNAPRP | -0.0737
RRIRMRPPRLPRPRPRPDTWPRP | 0.34
RRIRPRPPRLPRPRPRPHQYPRP | -0.623
RRIRTRPPRLPRPRPRPTICPRP | -0.401
RRIRVRPPRLPRPRPRPMRMPRP | -0.00559
RRIRKRPPRLPRPRPRPPEMPRP | 0.262
RRIRKRPPRLPRPRPRPQSTPRP | -0.0185
RRIRFRPPRLPRPRPRPDGMPRP | -0.0385
RRIRVRPPRLPRPRPRPVSGPRP | 0.0836
RRIRQRPPRLPRPRPRPYKGPRP | -0.0872
RRIRMRPPRLPRPRPRPANFPRP | -0.000946
RRIRMRPPRLPRPRPRPSIIPRP | 0.0973
RRIRIRPPRLPRPRPRPCCSPRP | -1.1
RRIRFRPPRLPRPRPRPPIAPRP | 0.31

Sequence | shrunken log2 fold change
RRIRNRPPRLPRPRPRPYMRPRP | -0.597
RRIRFRPPRLPRPRPRPQAAPRP | 1.04
RRIRWRPPRLPRPRPRPEEVPRP | -0.0142
RRIRDRPPRLPRPRPRPGHFPRP | 0.0123
RRIRSRPPRLPRPRPRPPEHPRP | 0.169
RRIRTRPPRLPRPRPRPCVWPRP | -0.000289
RRIRTRPPRLPRPRPRPQSSPRP | -0.08
RRIRLRPPRLPRPRPRPERFPRP | 0.219
RRIRIRPPRLPRPRPRPPNPPRP | 0.765
RRIRCRPPRLPRPRPRPSEPPRP | -0.184
RRIRIRPPRLPRPRPRPAQYPRP | -0.13
RRIRDRPPRLPRPRPRPTQCPRP | -0.0857
RRIRVRPPRLPRPRPRPNTNPRP | -0.421
RRIRVRPPRLPRPRPRPHTDPRP | -0.141
RRIRRRPPRLPRPRPRPGPIPRP | 0.174
RRIRVRPPRLPRPRPRPSSVPRP | -0.529
RRIRIRPPRLPRPRPRPDAEPRP | 0.874
RRIRKRPPRLPRPRPRPVVFPRP | -0.0936
RRIRMRPPRLPRPRPRPGSDPRP | 1.4
RRIRVRPPRLPRPRPRPWWTPRP | -0.0418
RRIRVRPPRLPRPRPRPYIPPRP | -1
RRIRWRPPRLPRPRPRPQWYPRP | -0.28

Sequence | shrunken log2 fold change
RRIRIRPPRLPRPRPRPISKPRP | -0.161
RRIRMRPPRLPRPRPRPWKYPRP | -0.198
RRIRCRPPRLPRPRPRPFMIPRP | -0.259
RRIRRRPPRLPRPRPRPFREPRP | 0.163
RRIRRRPPRLPRPRPRPAAQPRP | 0.462
RRIRIRPPRLPRPRPRPDPQPRP | -0.186
RRIRARPPRLPRPRPRPDKHPRP | -0.0889
RRIRLRPPRLPRPRPRPSSVPRP | 0.0713
RRIRYRPPRLPRPRPRPGGPPRP | 0.106
RRIRARPPRLPRPRPRPTGPPRP | 0.284
RRIRLRPPRLPRPRPRPYHKPRP | -0.304
RRIRYRPPRLPRPRPRPHQEPRP | -0.0108
RRIRCRPPRLPRPRPRPMLLPRP | 0.00507
RRIRGRPPRLPRPRPRPEQLPRP | 0.443
RRIRRRPPRLPRPRPRPTCGPRP | 0.506
RRIRIRPPRLPRPRPRPPSGPRP | 0.537
RRIRTRPPRLPRPRPRPMDWPRP | -0.05
RRIRFRPPRLPRPRPRPDVEPRP | 0.00816
RRIRHRPPRLPRPRPRPRHYPRP | -0.285
RRIRHRPPRLPRPRPRPIIWPRP | -0.145
RRIRHRPPRLPRPRPRPTVLPRP | -0.109
